In doi:10.1101/2023.06.19.545549:

Molecular target: N2β1α1C1, purified recombinant (the MxDnaK1 chimera with the MxDnaK2 NBD) (Myxococcus xanthus DK1622)
Test: SDS-PAGE of the purified protein

stoichiometry N: 2
Substance: N2β1α1C1, purified recombinant (the MxDnaK1 chimera with the MxDnaK2 NBD)
